Laboratory results taken from US20020035246A1 (VLAAMS INTERUNIVERSITAIR INSTITUUT VOOR BIOTECHNOLOGIE VZW, published 2002).

T1: TH72 prey protein (GAL4TAD fused in-frame to a partial SMAD4 starting at amino acid 252) (mouse, UniProt P97471 252-551, limits assumed)
T1 construct: Only the start (aa 252) is stated; the C-terminal end of the clone is not; also called TH72 (DPC4 or SMAD4); partial DPC-4 (SMAD4)
T1 sequence (looked up): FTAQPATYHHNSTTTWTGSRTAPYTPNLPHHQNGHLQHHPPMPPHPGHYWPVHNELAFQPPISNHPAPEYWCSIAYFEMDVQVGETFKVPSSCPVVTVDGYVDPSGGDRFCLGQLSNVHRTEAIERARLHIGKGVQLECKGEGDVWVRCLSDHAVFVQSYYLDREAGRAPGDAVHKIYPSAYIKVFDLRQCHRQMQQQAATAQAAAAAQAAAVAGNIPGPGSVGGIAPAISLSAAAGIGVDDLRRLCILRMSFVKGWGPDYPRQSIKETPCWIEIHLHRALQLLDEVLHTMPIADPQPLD

T2: SIP1 (TH1) prey protein (GAL4TAD fused to the 626 aa polypeptide encoded by th1 cDNA) (mouse, UniProt Q9R0G7 315-940, limits assumed)
T2 sequence: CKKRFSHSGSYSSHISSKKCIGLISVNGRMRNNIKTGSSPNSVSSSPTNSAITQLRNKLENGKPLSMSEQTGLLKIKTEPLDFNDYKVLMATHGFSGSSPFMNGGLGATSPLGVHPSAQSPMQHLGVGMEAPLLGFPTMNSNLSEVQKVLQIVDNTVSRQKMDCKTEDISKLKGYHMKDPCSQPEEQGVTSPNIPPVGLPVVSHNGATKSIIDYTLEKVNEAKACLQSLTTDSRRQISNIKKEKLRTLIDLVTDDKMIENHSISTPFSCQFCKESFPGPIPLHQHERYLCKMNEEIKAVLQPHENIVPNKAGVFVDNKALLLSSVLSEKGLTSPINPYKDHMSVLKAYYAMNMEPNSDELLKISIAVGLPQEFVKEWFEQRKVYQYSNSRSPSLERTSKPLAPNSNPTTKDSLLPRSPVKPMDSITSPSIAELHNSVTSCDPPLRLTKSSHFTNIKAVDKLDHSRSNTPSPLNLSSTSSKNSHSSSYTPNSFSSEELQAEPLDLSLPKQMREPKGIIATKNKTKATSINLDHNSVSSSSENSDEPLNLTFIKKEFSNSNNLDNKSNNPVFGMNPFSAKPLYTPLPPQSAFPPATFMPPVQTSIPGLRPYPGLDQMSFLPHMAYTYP

B1: SIP7 prey protein (th74; partial open reading frame fused to the GAL4 transactivating domain in pACT2) (other, not shown: small tags and cut ends)
chain: TEPVRTDRRTEDQTATKERLLPPSGPLPRTPAPAPVTAPDTARCAVLAARHGRALSPGPRALAPSAQRCCPASGRAAETPASVGAGALRVGPAQPSQARQPTMLLLSPRSALVSVYCPQIFLLLSTAVTTLSSVVALGANIICNKIPGLAPRQRAICQSRPDAIIVIGEGAQMGIDECQHQFRFGRWNCSALGEKTVFGQELRVGSREAAFTYAITAAGVAHAVTAACSQGNLSNCGCDREKQGYYNQAEGWKWGGCSADVRYGIDFSRRFVDAREIKKNAGS
B2: Lamin (pLAM; Clontech) (other, UniProt P02545 66-230, looked up)
chain: SEEVVSREVSGIKAAYEAELGDARKTLDSVAKERARLQLELSKVREEFKELKARNTKKEGDLIAAQARLKDLEALLNSKEAALSTALSEKRTLEGELHDLRGQVAKLEAALGEAKKQLQDEMLRRVDAENRLQTMKEELDFQKNIYSEELRETKRRHETRLVEID
notes: Bought control bait plasmid

Experiments:
Assay in all cases: yeast two-hybrid
[1] = biological target: T3, Empty bait vector pGBT9 (GAL-4 DBD alone) (UniProt P04386 1-147)
T3 construct: Negative control bait; also called empty bait (i.e., GAL-4 DBD alone)
T3 sequence (P04386 1-147 limits assumed): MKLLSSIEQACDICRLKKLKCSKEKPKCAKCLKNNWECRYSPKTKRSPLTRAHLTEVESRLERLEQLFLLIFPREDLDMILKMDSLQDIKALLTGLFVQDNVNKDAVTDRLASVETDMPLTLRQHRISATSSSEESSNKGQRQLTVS

Lamin (pLAM; Clontech) = biological target: B2
[2] = biological target: T1, TH72 prey protein (GAL4TAD fused …)
[3] = biological target: T2, SIP1 (TH1) prey protein (GAL4TAD fused …)

| Binder | binding result [1] | binding result (Lamin (pLAM; Clontech)) | binding result [2] | binding result [3] |
| --- | --- | --- | --- | --- |
| B1 | no binding | no binding |  |  |
| B2 |  |  | no binding | no binding |
